Test results reported in US20250270298A1.

B1: CjaD-ECD-1A7 (VHH, not shown: small tags and cut ends)
VHH: EVQLVESGGGLVQAGGSLRLSCATSGFTPGDYAIGWFRQAPGKAREGVSCLSTRDGTTYYADSVKGRFTISTDNAQNTVYLQMNSLKPEDTAVYYCAGEQISFRAVYYCTEYEPVYWSQGTQVTVSS
B2: Flagella-ECF-1B6 (VHH)
VHH: EVQLVESGGGLVQSGGSLRLSCAASGRIFSITNMGWYRQAPGEQRELVADMPSGGSTNYADSVKGRFTISRDIAKNTVYLQMNSLKPEDTAVYYCNLKMSQPGWLVTNHNFWGQGTQVTVSS
B3: CjaD-ECD-1D3 (VHH, not shown: small tags and cut ends)
VHH: EVQLVESGGGLVQTGGSLRLSCATSGFTFEYSAIAWFRQAPGKGREGVSCISNRDGTTVYADSVKGRFTISSDNAKNTVYLQMNSLTPEDTGVYYCAADAGVYTADYCRDSRYDPVSKDAWGKGTLVTVSS
B4: CfrA-ECA-1G7 (VHH, not shown: small tags and cut ends)
VHH: EVQLVESGGGLVQPGGSLRLSCTASGSSLDYYAIGWFRQAPGKEREGVSCISSRDGRIYWADSVEGRFTISRDNGKNTVYLQMNSLKPEDTAVYYCATSRWSFCPSDWSPVPSPFGSWGQGTQVTVSS
B5: CadF-ECF-1D10 (VHH, not shown: small tags and cut ends)
VHH: EVQLVESGGGLVQPGGSLRLSCAASGFTLDDYAVGWFRQAPGKEREWLSGISSRDGSTVYADSVKGRFTISRDNAKNTYYLQMNSLKPEDTAVYYCAAAVGYILTRVKSHYNDWSQGTQVTVSS
B6: CmeC-ECM-1C11 (VHH)
VHH: EVQLVESGGGLVQPGGSLRLSCAASGFTFSDQPMGWYRQAPGQGREWIAFISSGSGGTTDYKNSVKGRFTISRDNAKNIVYLQMNSLKPDDTARYYCNFRIDNNYWGQGTQVTVSS
B7: CmeC-ECM-1D6 (VHH)
VHH: EVQLVESGGGLVQAGGSLRLSCAASGGTFSRYMMGWFRQAPGKEREFVASIARSGGTYFADSVKGRLTATRDDAKNTMHLQMNSLKPEDTAVYYCAAGAGGSYPALLDFEYLVWGQGTQVTVSS
B8: Flagella-ECF-1C4 (VHH)
VHH: EVQLVESGGGLVQAGGSLRVSCAASGRAVHNYALNWFRQAPGKAREFVSAISWTRRTYYANSVRGRFTISRDNNGNMVHLQMSNLKSEDTALYYCAAATTWPRLDGAEYWGQGTQVTVSS
B9: Flagella-ECF-1F4 (VHH)
VHH: EVQLVESGGGLVQPGGSLRLSCEAAGSILRVNSMGWYRQAPGKQRDLVSIITSNNDAKYSDSVRGRFTISRDNAKNTVYLQMSSLKPDDTAVYYCNAYVETAGWIPTTHNLWGQGTQVTVSS
B10: CmeC-ECM-1G7 (VHH)
VHH: EVQLVESGGDLVQDGGSLRLSCAASGGDFRNPVTGWYRQAPGKQRELVGLITSDGRTNYGDSVMGRFTISMDTAKNTMYLQMNSLKPEDSAVYYCAASLLYGGLQFSTNIWGQGTQVTVSS
B11: CadF-ECF-1F10 (VHH, not shown: small tags and cut ends)
VHH: EVQLVESGGGSVQAGGSLRLSCTASIRAGNRYAMGWFRQAPGKEREFVAGISWSGGNTYHADSVNGRFTISRDNAKNTLYLTMNSLKSEDTAVYYCAASWKPLTFRGDDYTYWGQGTQVTVSS
B12: Flagella-ECF-1G8 (VHH)
VHH: EVQLVESGGGLVEAGGSLTLSCTTSEPTSLLNLMGWWRQGPGKEREFVASSNWSGKLVDYADGVEGRFTVIRNEDENAISLQMNSLTVEDTAIYYCAASRLGLPRSAQANQYWGQGTQVTVSS
B13: Flagella-ECF-1D9 (VHH)
VHH: EVQLVESGGGLVEPGGSLRLSCATSGFAFDNYCMYWVRQAPGKGLEWISGITNSGSFSYYADSVKGRFTISRDNAKNTLFLEMNSLTVDDTAVYYCAIHGHGCTWDSLRTTSGPRYRGQGTQVTVSS

What was measured:
[1] = target: CjaD (Campylobacter jejuni); test: ELISA on directly coated CjaD (200 ng/well), serial dilution of purified VHH, anti-FLAG + anti-mouse-HRP, OPD, absorption at 490 nm
[2] = target: C. jejuni flagella (Campylobacter jejuni); test: apparent affinity estimated from ELISA dose response on immobilized Cj flagella
[3] = target: C. jejuni flagella (Campylobacter jejuni); test: ELISA dose response, purified VHH on immobilized Cj flagella, rabbit anti-VHH detection
[4] = target: CjaD (Campylobacter jejuni); test: apparent affinity from ELISA dose response, purified VHH on immobilized CjaD, anti-FLAG detection
[5] = target: CfrA (Campylobacter jejuni); test: ELISA on directly coated CfrA (200 ng/well), serial dilution of purified VHH, anti-FLAG + anti-mouse-HRP, OPD, absorption at 490 nm
[6] = target: CadF (Campylobacter jejuni); test: ELISA on directly coated CadF (200 ng/well), serial dilution of purified VHH, rabbit anti-VHH + anti-rabbit-HRP, OPD, absorption at 490 nm
[7] = target: CmeC (Campylobacter jejuni); test: ELISA on directly coated CmeC (200 ng/well), serial dilution of purified VHH, anti-FLAG + anti-mouse-HRP, OPD, absorption at 490 nm

Binder | Kd [2] [nM] | Relative Bmax [3] | other results
B1 | – | – | EC50 (read off the curve) [1]: 2 nM
B2 | 5 | 2.5 | –
B3 | – | – | Kd [4]: 0.06 nM
B4 | – | – | EC50 (read off the curve) [5]: 9 nM
B5 | – | – | EC50 (read off the curve) [6]: 0.7 nM
B6 | – | – | EC50 (read off the curve) [7]: 0.4 nM
B7 | – | – | EC50 (read off the curve) [7]: 0.7 nM
B8 | 4 | 3 | –
B9 | 0.6 | 2.5 | –
B10 | – | – | EC50 (read off the curve) [7]: 0.3 nM
B11 | – | – | EC50 (read off the curve) [6]: 0.4 nM
B12 | 7 | 2.5 | –
B13 | 9 | 3 | –
